Earlier results in paper PMC4298871.
pKd: −log10 of the molar value.

Biological target: M6P/IGF-IIR (Homo sapiens) (UniProt P11717)
Test: SPR

Sequence of UniProt P11717 (P11717 41-2491): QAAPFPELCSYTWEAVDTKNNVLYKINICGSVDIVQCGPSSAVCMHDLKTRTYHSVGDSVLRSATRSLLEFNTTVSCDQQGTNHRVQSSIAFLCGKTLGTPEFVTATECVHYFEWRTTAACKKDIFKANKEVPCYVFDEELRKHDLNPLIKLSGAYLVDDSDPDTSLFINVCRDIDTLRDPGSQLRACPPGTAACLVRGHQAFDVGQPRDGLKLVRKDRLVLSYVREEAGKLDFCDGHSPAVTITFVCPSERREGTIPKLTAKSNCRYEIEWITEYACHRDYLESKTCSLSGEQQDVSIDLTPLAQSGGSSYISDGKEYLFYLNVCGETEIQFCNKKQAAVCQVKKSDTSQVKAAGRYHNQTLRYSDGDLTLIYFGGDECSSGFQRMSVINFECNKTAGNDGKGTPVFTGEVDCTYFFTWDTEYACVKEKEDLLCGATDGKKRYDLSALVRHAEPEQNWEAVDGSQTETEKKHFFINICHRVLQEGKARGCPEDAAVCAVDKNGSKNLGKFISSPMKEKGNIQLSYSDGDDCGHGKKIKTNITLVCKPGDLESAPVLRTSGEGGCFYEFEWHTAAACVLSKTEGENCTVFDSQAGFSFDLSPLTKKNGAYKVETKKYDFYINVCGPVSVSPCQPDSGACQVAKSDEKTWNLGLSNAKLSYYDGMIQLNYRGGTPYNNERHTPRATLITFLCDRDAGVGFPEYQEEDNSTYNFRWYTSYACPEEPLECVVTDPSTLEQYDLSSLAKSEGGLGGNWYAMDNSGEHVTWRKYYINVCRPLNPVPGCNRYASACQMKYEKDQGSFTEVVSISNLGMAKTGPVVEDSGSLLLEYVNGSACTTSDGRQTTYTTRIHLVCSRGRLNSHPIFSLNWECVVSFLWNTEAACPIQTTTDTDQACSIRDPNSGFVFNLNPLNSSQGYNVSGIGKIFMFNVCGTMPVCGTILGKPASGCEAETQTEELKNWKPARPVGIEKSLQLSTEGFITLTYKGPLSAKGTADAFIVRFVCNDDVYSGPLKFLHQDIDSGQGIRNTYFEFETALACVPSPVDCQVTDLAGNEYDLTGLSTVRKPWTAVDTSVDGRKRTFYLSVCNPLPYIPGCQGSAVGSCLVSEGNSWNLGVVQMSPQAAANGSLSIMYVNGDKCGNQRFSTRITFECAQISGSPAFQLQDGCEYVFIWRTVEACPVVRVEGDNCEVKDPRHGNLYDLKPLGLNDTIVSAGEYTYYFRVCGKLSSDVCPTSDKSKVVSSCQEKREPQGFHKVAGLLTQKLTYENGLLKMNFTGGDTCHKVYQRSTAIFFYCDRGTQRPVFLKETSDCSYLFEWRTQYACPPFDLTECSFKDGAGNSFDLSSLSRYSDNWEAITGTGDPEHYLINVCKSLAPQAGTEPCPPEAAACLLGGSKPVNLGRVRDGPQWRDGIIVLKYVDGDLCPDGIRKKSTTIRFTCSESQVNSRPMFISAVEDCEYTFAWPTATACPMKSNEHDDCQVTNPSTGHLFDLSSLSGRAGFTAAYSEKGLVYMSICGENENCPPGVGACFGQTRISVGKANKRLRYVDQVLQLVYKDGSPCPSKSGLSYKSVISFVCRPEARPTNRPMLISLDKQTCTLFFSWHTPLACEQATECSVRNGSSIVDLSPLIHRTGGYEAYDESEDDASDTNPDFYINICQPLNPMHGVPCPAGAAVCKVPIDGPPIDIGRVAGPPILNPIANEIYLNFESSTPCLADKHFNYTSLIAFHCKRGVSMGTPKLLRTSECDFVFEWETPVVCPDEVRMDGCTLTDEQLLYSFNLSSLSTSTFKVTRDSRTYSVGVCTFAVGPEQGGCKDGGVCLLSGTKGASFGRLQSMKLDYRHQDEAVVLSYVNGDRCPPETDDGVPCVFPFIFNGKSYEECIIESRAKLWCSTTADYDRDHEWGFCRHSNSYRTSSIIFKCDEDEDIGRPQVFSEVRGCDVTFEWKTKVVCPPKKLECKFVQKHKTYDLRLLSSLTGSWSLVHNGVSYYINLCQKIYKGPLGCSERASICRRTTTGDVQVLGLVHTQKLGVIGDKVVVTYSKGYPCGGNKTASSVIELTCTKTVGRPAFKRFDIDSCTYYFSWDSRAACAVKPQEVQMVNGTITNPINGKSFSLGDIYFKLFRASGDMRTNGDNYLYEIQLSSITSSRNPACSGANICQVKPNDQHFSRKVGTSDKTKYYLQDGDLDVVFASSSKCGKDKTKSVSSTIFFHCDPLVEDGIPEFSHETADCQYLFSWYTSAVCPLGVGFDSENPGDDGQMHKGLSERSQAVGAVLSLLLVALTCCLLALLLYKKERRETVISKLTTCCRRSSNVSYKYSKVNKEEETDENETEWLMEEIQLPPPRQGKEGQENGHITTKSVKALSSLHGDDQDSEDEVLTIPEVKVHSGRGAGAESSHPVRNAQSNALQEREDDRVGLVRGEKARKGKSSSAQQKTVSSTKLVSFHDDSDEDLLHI

For DPP-4 (from UniProt P27487), the pKd is given as 4.44.
